Results on 4 molecules are retold here after patent US20060223059A1.

Where two headings read alike, the source gives them in different places.

The test system of data set [1] is T1, Boc-A-A-P-F-AMC.
T1 sequence: AAPF

The test system of data set [2] is T2, Boc-V-P-R-AMC.
T2 sequence: VPR

Data set [3] deals with T3, Boc-A-A-P-F-AMC.
T3 chain: AAPF

In data set [4] the target is T4, Boc-V-P-R-AMC.
T4 chain: VPR

For chymotrypsin, in the data set on Boc-A-A-P-F-AMC [1], the “hydrolysis of the fluorogenic peptide (release of AMC, arbitrary fluorescence counts)” value (“hydrolysis of the fluorogenic peptide” below) is “Chymotrypsin, as expected, effectively cleaved the peptide substrate in a dose-dependent fashion”; the “kinetic analysis, fluorescence counts at 30 sec intervals for 15 min” value is “Chymotrypsin activity increases with increasing concentrations and over time”.

Consider trypsin, for which, in the data set with Boc-V-P-R-AMC [2], the “hydrolysis of the fluorogenic peptide” value is on record as “Fluorescence counts increased, in a dose-dependent manner, with increased concentrations of each enzyme”; the “kinetic analysis, fluorescence counts at 30 sec intervals for 15 min” value is “kallikrein 14- and trypsin-mediated hydrolysis of V-P-R-AMC increases over time”.

B1: recombinant kallikrein 14 (without c-myc/His epitopes) (protein)
chain: IIGGHTCTRSSQPWQAALLAGPRRRFLCGGALLSGQWVITAAHCGRPILQVALGKHNLRRWEATQQVLRVVRQVTHPNYNSRTHDNDLMLLQLQQPARIGRAVRPIEVTQACASPGTSCRVSGWGTISSPIARYPASLQCVNINISPDEVCQKAYPRTITPGMVCAGVPQGGKDSCQGDSGGPLVCRGQLQGLVSWGMERCALPGYPGVYTNLCKYRSWIEETMRDK
With B1, the “hydrolysis of the fluorogenic peptide” value is recorded as “neither recombinant kallikrein 14 nor kallikrein 14^myc-His hydrolyzed the peptide at any of the concentrations used” with Boc-A-A-P-F-AMC [3] and “recombinant kallikrein 14 is able to effectively cleave the trypsin substrate, V-P-R-AMC (SEQ ID NO. 30) at a similar efficiency as trypsin, the positive control” with Boc-V-P-R-AMC [4]. For the same molecule, the “kinetic analysis, fluorescence counts at 30 sec intervals for 15 min” value in the data set with Boc-A-A-P-F-AMC [3] is “kallikrein 14 produces only background fluorescence counts (identical to the negative control containing substrate only) at all concentrations throughout the experiment”; in the data set with Boc-V-P-R-AMC [4], “kallikrein 14- and trypsin-mediated hydrolysis of V-P-R-AMC increases over time”.

B2: recombinant hK14^myc-His (protein)
chain: EAEFIIGGHTCTRSSQPWQAALLAGPRRRFLCGGALLSGQWVITAAHCGRPILQVALGKHNLRRWEATQQVLRVVRQVTHPNYNSRTHDNDLMLLQLQQPARIGRAVRPIEVTQACASPGTSCRVSGWGTISSPIARYPASLQCVNINISPDEVCQKAYPRTITPGMVCAGVPQGGKDSCQGDSGGPLVCRGQLQGLVSWGMERCALPGYPGVYTNLCKYRSWIEETMRDK
For B2, the “hydrolysis of the fluorogenic peptide” value with Boc-A-A-P-F-AMC [3] is “neither recombinant kallikrein 14 nor kallikrein 14^myc-His hydrolyzed the peptide at any of the concentrations used”; with Boc-V-P-R-AMC [4], “kallikrein 14^myc-His was not able to hydrolyze V-P-R-AMC to a significant extent and is not considered to be active”.
